For one experiment, the target named is HLA-A*01:01. Put plainly: IEDB peptide-MHC binding, purified MHC/direct/fluorescence; filed as Kd, often an IC50 or EC50 that approximates it; ≥ and ≤ were set here for values at or beyond the usual limits of such assays.
In experiment [1] the target is HLA-A*02:01. The description is as above.
The next experiment deals with HLA-A*11:01. Described as above.
The next experiment deals with HLA-A*31:01. The experiment is described as above.
The target of another experiment is HLA-A*69:01. The description is as above.
The target in another experiment is HLA-B*07:02. Described as above.
A further experiment has as its target HLA-B*08:02. The description is as above.
In the next experiment the target is HLA-B*08:03. Described as above.
A further experiment deals with HLA-B*15:01. The description is as above.
Another experiment concerns the target HLA-B*15:02. The experiment is described as above.
Another experiment has as its target HLA-B*15:17. Described as above.
Another experiment deals with HLA-B*27:05. The description is as above.
Experiment [2] has as its target HLA-B*39:01. The description is as above.
In another experiment the target is HLA-B*46:01. The experiment is described as above.
The target of another experiment is HLA-B*48:01. The description is as above.
For another experiment, the target named is HLA-B*57:01. The description is as above.
The next experiment addresses HLA-B*58:01. Described as above.
For a further experiment, the target named is HLA-A*26:01. Kind of experiment: IEDB peptide-MHC binding, purified MHC/competitive/fluorescence; filed as Kd, often an IC50 or EC50 that approximates it; ≥ and ≤ were set here for values at or beyond the usual limits of such assays.
For another experiment, the target named is HLA-A*26:02. Described as above.
The next experiment addresses HLA-A*30:01. Described as above. Conditions: source organism: Zaire ebolavirus.
Experiment [3] concerns the target HLA-A*68:02. The description is as above. The note with it: source organism: Zaire ebolavirus.
In experiment [4] the target is HLA-B*35:01. The experiment is described as above. The note with it: source organism: Zaire ebolavirus.
In another experiment the target is HLA-C*06:02. Put plainly: IEDB peptide-MHC binding, purified MHC/direct/fluorescence; filed as Kd, often an IC50 or EC50 that approximates it; ≥ and ≤ were set here for values at or beyond the usual limits of such assays.
Experiment [5] concerns the target HLA-B*39:01. Kind of experiment: IEDB peptide-MHC binding, purified MHC/competitive/fluorescence; filed as Kd, often an IC50 or EC50 that approximates it; ≥ and ≤ were set here for values at or beyond the usual limits of such assays.
In another experiment the target is HLA-C*03:03. Kind of experiment: IEDB peptide-MHC binding, purified MHC/direct/fluorescence; filed as Kd, often an IC50 or EC50 that approximates it; ≥ and ≤ were set here for values at or beyond the usual limits of such assays. Conditions: source organism: Salmonella enterica subsp. enterica serovar Typhi str. CT18.
The target in another experiment is HLA-C*05:01. The experiment is described as above. Conditions: source organism: Salmonella enterica subsp. enterica serovar Typhi str. CT18.
Another experiment concerns the target HLA-C*12:03. The experiment is described as above.
For experiment [6], the target named is HLA-A*02:01. Put plainly: IEDB peptide-MHC binding, purified MHC/competitive/fluorescence; filed as Kd, often an IC50 or EC50 that approximates it; ≥ and ≤ were set here for values at or beyond the usual limits of such assays.
The target of another experiment is HLA-A*32:07. The description is as above. Conditions: source organism: Salmonella enterica subsp. enterica serovar Typhi.
The next experiment concerns the target HLA-A*32:15. Described as above. Conditions: source organism: Salmonella enterica subsp. enterica serovar Typhi.
For another experiment, the target named is HLA-A*68:23. Described as above. Conditions: source organism: Salmonella enterica subsp. enterica serovar Typhi.
The next experiment concerns the target HLA-B*15:42. The experiment is described as above. Conditions: source organism: Salmonella enterica subsp. enterica serovar Typhi.
Another experiment concerns the target HLA-B*45:06. Described as above. Conditions: source organism: Salmonella enterica subsp. enterica serovar Typhi.
For the next experiment, the target named is HLA-B*83:01. Described as above. The note with it: source organism: Salmonella enterica subsp. enterica serovar Typhi.
The next experiment concerns the target HLA-C*14:02. Described as above. The note with it: source organism: Salmonella enterica subsp. enterica serovar Typhi.
The target in another experiment is HLA-C*08:02. Kind of experiment: IEDB peptide-MHC binding, purified MHC/direct/fluorescence; filed as Kd, often an IC50 or EC50 that approximates it; ≥ and ≤ were set here for values at or beyond the usual limits of such assays.
Experiment [7] addresses HLA-A*68:02. Described as above. The note with it: source organism: Influenza A virus (A/Quail/Shanghai/8/96(H9N2)).
In the next experiment the target is HLA-B*08:01. Described as above. Conditions: source organism: Influenza A virus (A/Quail/Shanghai/8/96(H9N2)).
For experiment [8], the target named is HLA-B*35:01. The experiment is described as above. Conditions: source organism: Influenza A virus (A/Quail/Shanghai/8/96(H9N2)).
Experiment [9] addresses HLA-A*02:01. Put plainly: IEDB peptide-MHC binding, purified MHC/competitive/radioactivity; ≥ and ≤ were set here for values at or beyond the usual limits of such assays. Conditions: source organism: Rhinovirus C.
Where [10] appears, read: source organism: Ebola virus - Mayinga, Zaire, 1976.
[11] abbreviates: source organism: Ravn virus - Ravn, Kenya, 1987.
Where [12] appears, read: source organism: Zaire ebolavirus.
Setting [13] is: source organism: Salmonella enterica.
Setting [14] is: source organism: Salmonella enterica subsp. enterica serovar Typhi.
The mark [15] stands for this setting: source organism: Pseudomonas putida.
Setting [16] is: source organism: Pseudomonas aeruginosa PACS2.
Where [17] appears, read: source organism: Influenza A virus (A/Quail/Shanghai/8/96(H9N2)).
[18] abbreviates: source organism: Escherichia coli 536.

A value given as a limit tells only on which side of the number the result lay.

The text below walks through data of the Immune Epitope Database (IEDB).

One may read the Kd as the concentration at which binding is half-saturated. Take FIYFGKKQY: the dissociation constant Kd is 451 nM in the experiment with HLA-A*01:01 (setting [10]); at least 20000 nM with HLA-A*02:01 [1] (setting [10]); at least 20000 nM with HLA-A*11:01 (setting [10]); at least 20000 nM with HLA-A*31:01 (setting [10]); at least 20000 nM in the experiment with HLA-A*69:01 (setting [10]); at least 20000 nM in the experiment with HLA-B*07:02 (setting [10]). Further, the Kd in the experiment with HLA-B*08:02 (setting [11]) is at least 20000 nM; in the experiment with HLA-B*08:03 (setting [11]), at least 20000 nM; with HLA-B*15:01 (setting [10]) it was 67 nM; with HLA-B*15:02 (setting [11]), 8 nM; in the experiment with HLA-B*15:17 (setting [10]) it was 135 nM; with HLA-B*27:05 (setting [10]) it was at least 20000 nM. Also, the Kd with HLA-B*39:01 [2] (setting [11]) was at least 20000 nM; with HLA-B*46:01 (setting [10]), at least 20000 nM; with HLA-B*48:01 (setting [10]), at least 20000 nM; with HLA-B*57:01 (setting [10]) it was 7130 nM; with HLA-B*58:01 (setting [10]), at least 20000 nM; in the experiment with HLA-A*26:01 (setting [12]), 2300 nM. Further, the Kd was at least 20000 nM with HLA-A*26:02 (setting [12]), at least 20000 nM in the experiment with HLA-A*30:01, 4980 nM with HLA-A*68:02 [3] and 1490 nM in the experiment with HLA-B*35:01 [4].

On to YRYISFLVL, for which the Kd in the experiment with HLA-C*06:02 (setting [13]) stood at 651 nM; with HLA-B*39:01 [5] (setting [13]), 536 nM.

Turning to WTFTPTTPL, the dissociation constant (Kd) with HLA-C*03:03 is at most 1 nM; with HLA-C*05:01, at least 20000 nM; with HLA-C*12:03 (source organism: Salmonella enterica subsp. enterica serovar Typhi str. CT18) it was 212 nM; in the experiment with HLA-A*02:01 [6] (setting [14]) it was 5.8 nM; in the experiment with HLA-A*26:01 (setting [14]), 581 nM; with HLA-A*32:07, 765 nM. Also, the Kd in the experiment with HLA-A*32:15 was 57.5 nM; with HLA-A*68:23, 0.4 nM; with HLA-B*15:42 it was at least 5000 nM; in the experiment with HLA-B*39:01 [5] (setting [14]), 469 nM; with HLA-B*45:06 it was at least 5000 nM; with HLA-B*83:01, at least 5000 nM. This sequence also had a Kd with HLA-C*14:02 of 38.5 nM.

In the experiment with HLA-C*06:02 (source organism: Variola virus), FQYLLPGFVL came in with a Kd of 8620 nM. In other words, the single-digit micromolar range.

Regarding IVHPPMLYM, the equilibrium dissociation constant (Kd) is 61.1 nM with HLA-B*15:17 (setting [15]); 2170 nM in the experiment with HLA-B*57:01 (source organism: Vibrio vulnificus CMCP6); 5980 nM in the experiment with HLA-B*58:01 (setting [15]); at least 20000 nM with HLA-C*08:02 (setting [16]); 62 nM with HLA-C*12:03 (setting [16]).

With LVGGREWSY, the Kd with HLA-A*01:01 (setting [17]), in the experiment with HLA-A*02:01 [1] (setting [17]), with HLA-A*11:01 (setting [17]), with HLA-A*31:01 (setting [17]), in the experiment with HLA-A*68:02 [7] and in the experiment with HLA-A*69:01 (setting [17]) was at least 20000 nM in each case. For the same sequence, the Kd is at least 20000 nM in the experiment with HLA-B*07:02 (setting [17]); at least 20000 nM in the experiment with HLA-B*08:01; at least 20000 nM in the experiment with HLA-B*08:02 (setting [17]); at least 20000 nM in the experiment with HLA-B*08:03 (setting [17]); 1190 nM in the experiment with HLA-B*15:01 (setting [17]); at least 20000 nM with HLA-B*15:02 (setting [17]). Also, the equilibrium dissociation constant (Kd) was 1890 nM with HLA-B*15:17 (setting [17]); at least 20000 nM with HLA-B*27:05 (setting [17]); 843 nM with HLA-B*35:01 [8]; at least 20000 nM with HLA-B*39:01 [2] (setting [17]); at least 20000 nM in the experiment with HLA-B*46:01 (setting [17]); at least 20000 nM with HLA-B*48:01 (setting [17]). Further, the Kd with HLA-B*57:01 (setting [17]) is 1300 nM; with HLA-B*58:01 (setting [17]), at least 20000 nM; with HLA-A*26:01 (setting [17]) it was at least 20000 nM; with HLA-A*26:02 (setting [17]), at least 20000 nM.

The IC50 is the point on the concentration scale where inhibition reaches its midpoint. Consider GLEPLDLNT, for which, in the experiment with HLA-A*02:01 [9], the concentration for half-maximal inhibition (IC50) amounted to 500 nM.

For LLDEYRDYI, the Kd in the experiment with HLA-C*08:02 (setting [18]) is at least 20000 nM; with HLA-A*02:01 [6] (setting [18]), 1.1 nM.
